# Assay results reported in patent US20230303685A1.
# Key:
# [1] = molecular target: human SIRPα on hSIRPα-expressing cells (human) (UniProt P78324); assay: flow cytometry, stably transfected CHO cells, antibody titrated, labelled anti-rat or anti-mouse IgG, MFI
# [2] = molecular target: human SIRPα on hSIRPα-expressing cells (human) (UniProt P78324); assay: flow cytometry, stably transfected CHO cells, antibody titrated, labelled anti-human IgG, MFI
Binder,EC50 (read off the curve) [1],EC50 (read off the curve) [2]
"Antibody 4 (antibody, V domains shown) VH: QVQLQESGPGLLKPSETLSLTCAVSDYSISSGYYWGWIRQPPGKGLEWIGSIYHSGNTYYNPSLKSRVTILVDTSKNQFSLKLSSVTAADTAVYYCARDKCSTTTCSFDYWGQGTLVTVSS VL: DIQMTQSPSSLSASVGDRVTITCQASQDFSNYLNWYQQKPGKAPKLLIYAASNLETGVPSRFSGSGSGTDFTFTISSLQPEDIAVYYCQQYDNLPYTFGQGTKLEIK",1 µg/mL,
"Antibody 11 (antibody, V domains shown) VH: EVQLVESGGGLVQPGGSLRLSCAASGFTFSSYWMHWVRQAPGKGLVWVSRIHNDGSRTSYADSVKGRFTISRDNAKNTLYLQMSSLRAEDTAVYYCTRDPPPYDILTGYPFDYWGQGTLVTVSS VL: DIQMTQSPSSVSASVGDRVTITCRASQDISSWLAWFQQKPGKAPKLLIYGASSLQSGVPSRFSGSGSGTDFTLTISSLQPEDFATYYCQEANSFPYTFGQGTKLEIK",0.1 µg/mL,
"Antibody 28 (antibody, V domains shown) VH: QVQLQESGPGLVKPSGTLSLTCAVSGGSISSSNWWSWVRQPPGKGLEWIGEIYHSGSTNYNPSLKSRVTISVDKSKNQFSLKLSSVTAADTAVYYCARRGIWFGVGPWGQGTLVTVSS VL: DIVMTQSPLSLPVTPGEPASISCRSSQSLLHGNGFNYLDWYLQKPGQSPQLLIYLGSNRASGVPDRFTGSGSGTDFTLKISRVEAEDVGVYYCMQGLQTPRTFGQGTKVEIK",,0.2 µg/mL
